{"source": "patent US20240293553A1", "about": "“P-SELECTIN INHIBITORS AND USES THEREOF” (Beth Israel Deaconess Medical Center, Inc., priority 2021, published 2024)", "origin": "cited, not measured here", "molecules": {"B1": {"name": "PSGL-1: P-selectin glycoprotein ligand-1, glycoprotein expressed on the surface of all leukocytes; native ligand of P-selectin (protein, UniProt Q14242 42-412, looked up)", "P-selectin glycoprotein …": "QATEYEYLDYDFLPETEPPEMLRNSTDTTPLTGPGTPESTTVEPAARRSTGLDAGGAVTELTTELANMGNLSTDSAAMEIQTTQPAATEAQTTQPVPTEAQTTPLAATEAQTTRLTATEAQTTPLAATEAQTTPPAATEAQTTQPTGLEAQTTAPAAMEAQTTAPAAMEAQTTPPAAMEAQTTQTTAMEAQTTAPEATEAQTTQPTATEAQTTPLAAMEALSTEPSATEALSMEPTTKRGLFIPFSVSSVTHKGIPMAASNLSVNYPVGAPDHISVKQCLLAILILALVATIFFVCTVVLAVRLSRKGHMYPVRNYSPTEMVCISSLLPDGGEGPSATANGGLSKAKSPGLTPEPREDREGDDLTLHSFLP"}, "B2": {"name": "crizanlizumab: anti-P-selectin mAb approved for the treatment of sickle cell disease (antibody, chains of the INN, looked up, V domains shown)", "VH": "QVQLVQSGAEVKKPGASVKVSCKVSGYTFTSYDINWVRQAPGKGLEWMGWIYPGDGSIKYNEKFKGRVTMTVDKSTDTAYMELSSLRSEDTAVYYCARRGEYGNYEGAMDYWGQGTLVTVSS", "VL": "DIQMTQSPSSLSASVGDRVTITCKASQSVDYDGHSYMNWYQQKPGKAPKLLIYAASNLESGVPSRFSGSGSGTDFTLTISSLQPEDFATYYCQQSDENPLTFGGGTKVEIK"}}, "key": {"P-selectin": {"target": "T1, P-selectin (Homo sapiens, UniProt P16109)", "T1 sequence (P16109 42-830)": "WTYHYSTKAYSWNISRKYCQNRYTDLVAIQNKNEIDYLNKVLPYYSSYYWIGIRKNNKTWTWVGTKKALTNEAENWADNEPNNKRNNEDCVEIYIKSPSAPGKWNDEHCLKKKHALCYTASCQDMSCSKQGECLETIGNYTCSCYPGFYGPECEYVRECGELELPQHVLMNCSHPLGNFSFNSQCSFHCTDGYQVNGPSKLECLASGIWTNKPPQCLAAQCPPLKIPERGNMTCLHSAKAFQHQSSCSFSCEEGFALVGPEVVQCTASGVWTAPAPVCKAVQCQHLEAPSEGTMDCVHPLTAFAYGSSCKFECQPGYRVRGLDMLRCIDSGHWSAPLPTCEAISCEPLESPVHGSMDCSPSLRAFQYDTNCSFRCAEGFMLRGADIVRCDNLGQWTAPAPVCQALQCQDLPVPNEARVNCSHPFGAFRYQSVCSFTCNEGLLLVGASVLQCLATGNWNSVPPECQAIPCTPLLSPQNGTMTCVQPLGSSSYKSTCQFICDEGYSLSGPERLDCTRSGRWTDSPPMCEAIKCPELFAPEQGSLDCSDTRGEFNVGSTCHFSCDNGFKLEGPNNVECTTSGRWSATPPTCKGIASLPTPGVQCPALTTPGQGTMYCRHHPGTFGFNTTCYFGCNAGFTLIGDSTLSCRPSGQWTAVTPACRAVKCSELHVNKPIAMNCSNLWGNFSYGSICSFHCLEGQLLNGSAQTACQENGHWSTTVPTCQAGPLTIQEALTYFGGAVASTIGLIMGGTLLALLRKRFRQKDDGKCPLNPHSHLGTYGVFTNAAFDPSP", "conditions": "reported values"}, "[1]": {"conditions": "literature values"}}, "note": "Where “and” joins values, the source holds several entries; their conditions need not be identical. Identical values can stand only once.", "data": [{"molecule": "B1", "values": [{"measurement": "Kd", "setting": "P-selectin", "value": "73 nM and 70 to 300 nM"}]}, {"molecule": "B2", "values": [{"measurement": "t1/2", "setting": "[1]", "value": 10.6, "unit": "days"}]}]}
